To fix the notation:
T1: recombinant human MASP1 active protease (amino acids 297-699, C-terminal His Tag) (human, UniProt P48740 297-699)
T1 sequence: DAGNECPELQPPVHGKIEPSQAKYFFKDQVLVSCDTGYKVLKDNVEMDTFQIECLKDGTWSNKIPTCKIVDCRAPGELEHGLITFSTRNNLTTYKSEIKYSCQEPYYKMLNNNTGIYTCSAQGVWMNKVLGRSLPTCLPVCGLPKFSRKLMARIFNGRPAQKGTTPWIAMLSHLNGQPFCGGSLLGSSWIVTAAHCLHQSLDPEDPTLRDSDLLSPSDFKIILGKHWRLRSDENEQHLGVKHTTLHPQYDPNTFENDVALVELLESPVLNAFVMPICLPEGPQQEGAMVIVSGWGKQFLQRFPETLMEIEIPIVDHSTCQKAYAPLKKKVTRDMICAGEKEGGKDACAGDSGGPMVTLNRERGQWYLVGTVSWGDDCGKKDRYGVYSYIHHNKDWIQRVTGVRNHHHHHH

B1: Example 410: GIC+SRSLP-(Hyp)-IC+IPD-OH (peptide)
peptide: GICSRSLP[Hyp]ICIPD-OH
modifications: disulfide 3-11; N-terminus assumed
SMILES: CC[C@H](C)[C@H](NC(=O)CN)C(=O)N[C@H]1CSSC[C@@H](C(=O)N[C@H](C(=O)N2CCC[C@H]2C(=O)N[C@@H](CC(=O)O)C(=O)O)[C@@H](C)CC)NC(=O)[C@H]([C@@H](C)CC)NC(=O)[C@@H]2C[C@@H](O)CN2C(=O)[C@@H]2CCCN2C(=O)[C@H](CC(C)C)NC(=O)[C@H](CO)NC(=O)[C@H](CCCNC(=N)N)NC(=O)[C@H](CO)NC1=O
B2: Example 424: (Tranexamic)-IC+SRS-((tBu)A)-PPI-(Pen)+IP-(PEG5-CH2CO2H (18 atoms))-NH2 (peptide)
peptide: {Tranexamic″}-ICSRS[tBuAla]PPI[Pen]IP-{NH(CH2CH2O)5CH2CO-NH2}
modifications: disulfide 2-10
SMILES: CC[C@H](C)[C@@H]1NC(=O)[C@@H]2CCCN2C(=O)[C@@H]2CCCN2C(=O)[C@H](CC(C)(C)C)NC(=O)[C@H](CO)NC(=O)[C@H](CCCNC(=N)N)NC(=O)[C@H](CO)NC(=O)[C@@H](NC(=O)[C@@H](NC(=O)[C@H]2CC[C@@H](CN)CC2)[C@@H](C)CC)CSSC(C)(C)[C@@H](C(=O)N[C@H](C(=O)N2CCC[C@H]2C(=O)NCCOCCOCCOCCOCCOCC(N)=O)[C@@H](C)CC)NC1=O
B3: Example 411: AIC+SRS-((tBu)G)-PPI-C+IPD-NH2 (peptide)
peptide: AICSRS[Tle]PPICIPD-NH2
modifications: disulfide 3-11; N-terminus assumed
SMILES: CC[C@H](C)[C@H](NC(=O)[C@H](C)N)C(=O)N[C@H]1CSSC[C@@H](C(=O)N[C@H](C(=O)N2CCC[C@H]2C(=O)N[C@@H](CC(=O)O)C(N)=O)[C@@H](C)CC)NC(=O)[C@H]([C@@H](C)CC)NC(=O)[C@@H]2CCCN2C(=O)[C@@H]2CCCN2C(=O)[C@H](C(C)(C)C)NC(=O)[C@H](CO)NC(=O)[C@H](CCCNC(=N)N)NC(=O)[C@H](CO)NC1=O
B4: Example 413: ((N-Me)G)-IC+SR-(Dap)-LPPIC+IPD-OH (peptide)
peptide: [Sar]ICSR[Dap]LPPICIPD-OH
modifications: disulfide 3-11; N-terminus assumed
SMILES: CC[C@H](C)[C@H](NC(=O)CNC)C(=O)N[C@H]1CSSC[C@@H](C(=O)N[C@H](C(=O)N2CCC[C@H]2C(=O)N[C@@H](CC(=O)O)C(=O)O)[C@@H](C)CC)NC(=O)[C@H]([C@@H](C)CC)NC(=O)[C@@H]2CCCN2C(=O)[C@@H]2CCCN2C(=O)[C@H](CC(C)C)NC(=O)[C@H](CN)NC(=O)[C@H](CCCNC(=N)N)NC(=O)[C@H](CO)NC1=O
B5: Example 412: ((N-Me)G)-IC+KRS-((tBu)A)-PPI-(Pen)+IP-NH2 (peptide)
peptide: [Sar]ICKRS[tBuAla]PPI[Pen]IP-NH2
modifications: disulfide 3-11; N-terminus assumed
SMILES: CC[C@H](C)[C@H](NC(=O)CNC)C(=O)N[C@H]1CSSC(C)(C)[C@@H](C(=O)N[C@H](C(=O)N2CCC[C@H]2C(N)=O)[C@@H](C)CC)NC(=O)[C@H]([C@@H](C)CC)NC(=O)[C@@H]2CCCN2C(=O)[C@@H]2CCCN2C(=O)[C@H](CC(C)(C)C)NC(=O)[C@H](CO)NC(=O)[C@H](CCCNC(=N)N)NC(=O)[C@H](CCCCN)NC1=O
B6: Example 422: (Tranexamic)-IC+SRS-((tBu)A)-PPI-(Pen)+IP-(PEG4-CH2CO2H (15 atoms))-NH2 (peptide)
peptide: {Tranexamic″}-ICSRS[tBuAla]PPI[Pen]IP-{NH(CH2CH2O)4CH2CO-NH2}
modifications: disulfide 2-10
SMILES: CC[C@H](C)[C@@H]1NC(=O)[C@@H]2CCCN2C(=O)[C@@H]2CCCN2C(=O)[C@H](CC(C)(C)C)NC(=O)[C@H](CO)NC(=O)[C@H](CCCNC(=N)N)NC(=O)[C@H](CO)NC(=O)[C@@H](NC(=O)[C@@H](NC(=O)[C@H]2CC[C@@H](CN)CC2)[C@@H](C)CC)CSSC(C)(C)[C@@H](C(=O)N[C@H](C(=O)N2CCC[C@H]2C(=O)NCCOCCOCCOCCOCC(N)=O)[C@@H](C)CC)NC1=O
B7: Example 414: GIC+SRSLP-((cis-Fluoro)P)-IC+IPD-OH (peptide)
peptide: GICSRSLP[Pro(cis-4-F)]ICIPD-OH
modifications: disulfide 3-11; N-terminus assumed
SMILES: CC[C@H](C)[C@H](NC(=O)CN)C(=O)N[C@H]1CSSC[C@@H](C(=O)N[C@H](C(=O)N2CCC[C@H]2C(=O)N[C@@H](CC(=O)O)C(=O)O)[C@@H](C)CC)NC(=O)[C@H]([C@@H](C)CC)NC(=O)[C@@H]2C[C@H](F)CN2C(=O)[C@@H]2CCCN2C(=O)[C@H](CC(C)C)NC(=O)[C@H](CO)NC(=O)[C@H](CCCNC(=N)N)NC(=O)[C@H](CO)NC1=O
B8: Example 418: AIC+SRSLP-(Oic)-I-(Pen)+IPN-OH (peptide)
peptide: AICSRSLP[Oic]I[Pen]IPN-OH
modifications: disulfide 3-11; N-terminus assumed
SMILES: CC[C@H](C)[C@H](NC(=O)[C@H](C)N)C(=O)N[C@H]1CSSC(C)(C)[C@@H](C(=O)N[C@H](C(=O)N2CCC[C@H]2C(=O)N[C@@H](CC(N)=O)C(=O)O)[C@@H](C)CC)NC(=O)[C@H]([C@@H](C)CC)NC(=O)[C@@H]2C[C@@H]3CCCC[C@@H]3N2C(=O)[C@@H]2CCCN2C(=O)[C@H](CC(C)C)NC(=O)[C@H](CO)NC(=O)[C@H](CCCNC(=N)N)NC(=O)[C@H](CO)NC1=O
B9: Example 409: (PEG1(10 atoms))-GIC+SRSLPPIC+IPD-OH (peptide)
peptide: [PEG2]GICSRSLPPICIPD-OH
modifications: disulfide 4-12; N-terminus assumed
SMILES: CC[C@H](C)[C@H](NC(=O)CNC(=O)CCOCCOCCN)C(=O)N[C@H]1CSSC[C@@H](C(=O)N[C@H](C(=O)N2CCC[C@H]2C(=O)N[C@@H](CC(=O)O)C(=O)O)[C@@H](C)CC)NC(=O)[C@H]([C@@H](C)CC)NC(=O)[C@@H]2CCCN2C(=O)[C@@H]2CCCN2C(=O)[C@H](CC(C)C)NC(=O)[C@H](CO)NC(=O)[C@H](CCCNC(=N)N)NC(=O)[C@H](CO)NC1=O
B10: Example 416: GIC+SRS-((4-Bromo)F)-PPIC+IPD-OH (peptide)
peptide: GICSRS[Phe(4-Br)]PPICIPD-OH
modifications: disulfide 3-11; N-terminus assumed
SMILES: CC[C@H](C)[C@H](NC(=O)CN)C(=O)N[C@H]1CSSC[C@@H](C(=O)N[C@H](C(=O)N2CCC[C@H]2C(=O)N[C@@H](CC(=O)O)C(=O)O)[C@@H](C)CC)NC(=O)[C@H]([C@@H](C)CC)NC(=O)[C@@H]2CCCN2C(=O)[C@@H]2CCCN2C(=O)[C@H](Cc2ccc(Br)cc2)NC(=O)[C@H](CO)NC(=O)[C@H](CCCNC(=N)N)NC(=O)[C@H](CO)NC1=O
B11: Example 423: (Tranexamic)-IC+SRS-((tBu)A)-PPI-(Pen)+IP-(PEG3(16 atoms))-NH2 (peptide)
peptide: {Tranexamic″}-ICSRS[tBuAla]PPI[Pen]IP-{PEG4-NH2}
modifications: disulfide 2-10
SMILES: CC[C@H](C)[C@@H]1NC(=O)[C@@H]2CCCN2C(=O)[C@@H]2CCCN2C(=O)[C@H](CC(C)(C)C)NC(=O)[C@H](CO)NC(=O)[C@H](CCCNC(=N)N)NC(=O)[C@H](CO)NC(=O)[C@@H](NC(=O)[C@@H](NC(=O)[C@H]2CC[C@@H](CN)CC2)[C@@H](C)CC)CSSC(C)(C)[C@@H](C(=O)N[C@H](C(=O)N2CCC[C@H]2C(=O)NCCOCCOCCOCCOCCC(N)=O)[C@@H](C)CC)NC1=O
B12: Example 421: (Tranexamic)-IC+SRS-((tBu)A)-PPI-(Pen)+IP-(PEG2(13 atoms))-NH2 (peptide)
peptide: {Tranexamic″}-ICSRS[tBuAla]PPI[Pen]IP-{PEG3-NH2}
modifications: disulfide 2-10
SMILES: CC[C@H](C)[C@@H]1NC(=O)[C@@H]2CCCN2C(=O)[C@@H]2CCCN2C(=O)[C@H](CC(C)(C)C)NC(=O)[C@H](CO)NC(=O)[C@H](CCCNC(=N)N)NC(=O)[C@H](CO)NC(=O)[C@@H](NC(=O)[C@@H](NC(=O)[C@H]2CC[C@@H](CN)CC2)[C@@H](C)CC)CSSC(C)(C)[C@@H](C(=O)N[C@H](C(=O)N2CCC[C@H]2C(=O)NCCOCCOCCOCCC(N)=O)[C@@H](C)CC)NC1=O

Numbered stars: 1 amine (or outer) side, 2 acyl side, 3 side chain; on linkers, the order of the positions; unused ones are H or OH. Bridge positions count the residues as written; N and C are the ends. Square brackets hold non-standard residues; d marks the D form. Primed or numbered codes have the meaning given here. Ends that are not written are not given here. * marks the point of attachment. Tranexamic″ = tranexamic acid, NC[C@H]1CC[C@@H](C(=O)*)CC1; NH(CH2CH2O)5CH2CO = O=C(COCCOCCOCCOCCOCCN[*:1])[*:2]; NH(CH2CH2O)4CH2CO = O=C(COCCOCCOCCOCCN[*:1])[*:2]; Oic = O=C(O)[C@@H]1C[C@@H]2CCCC[C@@H]2N1; Phe(4-Br) = N[C@@H](Cc1ccc(Br)cc1)C(=O)O; Pro(cis-4-F) = O=C(O)[C@@H]1C[C@H](F)CN1; Hyp = O=C(O)[C@@H]1C[C@@H](O)CN1; tBuAla = CC(C)(C)C[C@H](N)C(=O)O; PEG4 = NCCOCCOCCOCCOCCC(=O)O; Pen = CC(C)(S)[C@H](N)C(=O)O; Tle = CC(C)(C)[C@H](N)C(=O)O; PEG3 = NCCOCCOCCOCCC(=O)O; Dap = NC[C@H](N)C(=O)O; PEG2 = NCCOCCOCCC(=O)O; Sar = CNCC(=O)O

One assay deals with recombinant human MASP2 active protease (amino acids 297-686, C-terminal His Tag) (human, UniProt O00187 297-686). The experiment in a line: cell-based or functional assay.
Chain of recombinant human MASP2 active protease (amino acids 297-686, C-terminal His Tag) (O00187 other isoform, or with tags, fused parts or gaps limits assumed): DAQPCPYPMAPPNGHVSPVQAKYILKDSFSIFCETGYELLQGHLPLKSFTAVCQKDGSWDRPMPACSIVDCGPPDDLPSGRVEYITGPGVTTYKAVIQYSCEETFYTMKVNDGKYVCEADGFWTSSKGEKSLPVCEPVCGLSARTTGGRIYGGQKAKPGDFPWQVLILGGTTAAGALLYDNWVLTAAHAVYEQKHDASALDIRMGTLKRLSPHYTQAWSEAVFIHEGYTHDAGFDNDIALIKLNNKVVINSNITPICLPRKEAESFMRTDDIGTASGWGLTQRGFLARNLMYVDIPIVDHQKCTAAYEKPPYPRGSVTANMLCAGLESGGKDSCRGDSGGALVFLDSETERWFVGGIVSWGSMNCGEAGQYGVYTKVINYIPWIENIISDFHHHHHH
On to B1, for which the “human MASP2 IC50” value was 2700 nM.

As for B2, the “human MASP2 IC50” value was determined as 11 nM.

Turning to B3, the “human MASP2 IC50” value was 2500 nM.

B4: the “human MASP2 IC50” value came out at 2000 nM.

Regarding [Sar]ICSRSLP[Oic]I[Pen]I[5‑Azaspiro(2.4)heptane‑1‑carboxylic acid]-OH (disulfide 3-11) [Example 419: ((N-Me)G)-IC+SRSLP-(Oic)-I-(Pen)+I-((5-Azaspiro[2.4]heptane-1-carboxylic acid)-OH], the “human MASP2 IC50” value came to 100 nM.

On to B5, for which the “human MASP2 IC50” value is 5000 nM.

Turning to B6, the “human MASP2 IC50” value stood at 12 nM.

Regarding B7, the “human MASP2 IC50” value was found to be 4000 nM.

Take B8: the “human MASP2 IC50” value was 130 nM.

As to B9, the “human MASP2 IC50” value stood at 570 nM.

On to B10, for which the “human MASP2 IC50” value turned out to be 190 nM.

With B11, the “human MASP2 IC50” value was 12 nM.

Take B12: the “human MASP2 IC50” value was 9.8 nM.

With AICSRSLPPIC[(2S,3S)‑2‑((Amino)methyl)‑3‑methylpentanoic acid]PD-NH2 (disulfide 3-11) [Example 417: AIC+SRSLPPIC+((2S,3S)-2-((Amino)methyl)-3-methylpentanoic acid)-PD-NH2], the “human MASP2 IC50” value worked out at 17000 nM.

For the next assay, the target named is T1, recombinant human MASP1 active protease …. Description: cell-based or functional assay.
Take B1: the “human MASP1 IC50” value was 76 nM.

Consider B2, for which the “human MASP1 IC50” value stood at 6.6 nM.

In the case of B3, the “human MASP1 IC50” value worked out at 76 nM.

On to B4, for which the “human MASP1 IC50” value came to 78 nM.

Take [Sar]ICSRSLP[Oic]I[Pen]I[5‑Azaspiro(2.4)heptane‑1‑carboxylic acid]-OH (disulfide 3-11) [Example 419: ((N-Me)G)-IC+SRSLP-(Oic)-I-(Pen)+I-((5-Azaspiro[2.4]heptane-1-carboxylic acid)-OH]: the “human MASP1 IC50” value is 5.1 nM.

Regarding B5, the “human MASP1 IC50” value was 77 nM.

Take B6: the “human MASP1 IC50” value worked out at 8.1 nM.

With B7, the “human MASP1 IC50” value stood at 86 nM.

B8: the “human MASP1 IC50” value worked out at 1.8 nM.

Take B9: the “human MASP1 IC50” value is 71 nM.

With B10, the “human MASP1 IC50” value is 87 nM.

For B11, the “human MASP1 IC50” value was determined as 5.7 nM.

For the molecule B12, the “human MASP1 IC50” value was determined as 5 nM.

Regarding AICSRSLPPIC[(2S,3S)‑2‑((Amino)methyl)‑3‑methylpentanoic acid]PD-NH2 (disulfide 3-11) [Example 417: AIC+SRSLPPIC+((2S,3S)-2-((Amino)methyl)-3-methylpentanoic acid)-PD-NH2], the “human MASP1 IC50” value was found to be 89 nM.
